According to patent publication US20150018409A1, “CHIMERIC POLYPEPTIDES AND THEIR USE” (ADRIACELL S.P.A., priority 2003, published 2015):

Columns and labels:
[1] = system: NHEJ mutated cell lines (V3, xrss5, XR-1, HIS P1.13-11); assay: Colony formation assay of NHEJ mutated cell lines; type: cell-based, rodent
Procedure: Clonogenic assay of CHO cells that were mutated for proteins involved in the NHEJ repair-pathway treated with […]. The cell lines used are AA8 (parental line), V3 (DNA-PCCS^(−/−)), xrss5 (KU80^(−/−)) and XR-1 (XRCC4^(−/−)), HIS P1.13-11 (KU70^(−/−)) and the corresponding parental cell line CHO-K1. Various dilutions of the CHO cells containing the NHEJ mutations as indicated were treated for 24 hours with […] (25 nM, grey bars; 100 nM, black bars) or not treated (white bars); the cells were washed and then grown for 7-10 days, stained with GIEMSA and colonies were counted.
These cell lines were analysed in the nuclease activity assays with […] in vivo and compared to the parental cell lines as indicated. […] Seven to ten days after addition, cell growth was analysed by staining with GIEMSA-blue and quantification of diverse cell-concentrations. […] In analogy, cell growth was quantified after a single treatment with […] for 12 hours (10 nM, grey bars; 75 nM, black bars; not treated, white bars). […] The multiwell-microtiter-plates (for an example see FIG. 13A) were scanned using the VersaDOC® (BioRad) imaging system and growth was automatically quantified with the software package Quantify One® for the analysis of the microtiter-plates (microtiter-plates scanning software).

[2] = system: MRC-5 cells (ATM positive control); assay: Colony forming assay; type: cell-based; conditions: 60 minutes treatment, 25 nM or 100 nM
Procedure: (§1) FIG. 8. Induction of Cell Cycle Block and Clonogenic Activity by […] of Cells Mutated for ATM (AT-5) in Comparison to Non Mutated Cells (MRC-5). • A) Distribution of DNA content distribution during the cell cycle detected by FACS analysis of AT-5 cells after 36 hours of […] treatment (25 nM, 100 nM), or with adriamycin (0.02 μg/ml; ADRIAMYCIN), or with SC34 (100 nM), and as control from non treated cells. The histograms represent DNA content relative to the cell-numbers; the panel on the right indicates the percentage of the corresponding distributions of the various cell cycle phases as calculated with the MODFIT™ program-package. • B) Colony forming assay with cell lines mutated for ATM and induced for DNA damage by […].
(§2) The cell cycle response to DSB's induced by […] treatment were analysed in p53 positive or negative cells. […] Incubation for 36 hours of the cell lines mutated for ATM (AT-5) with […] results in a transient retardation of the cell cycle, as was determined by a DNA content FACS analysis. […] A single addition of […] for 60 minutes to the AT-5 cells was sufficient to induce cell cycle stop after 24 hours (FIG. 8A) and finally leads to cell death, obtained from not correctly ligated DNA, and consequently, the clonogenic activity after a single treatment with […] for 60 minutes was below 0.02% for AT-5 cells. […] In addition, the cells were incubated with adriamycin as a control.

[3] = system: AT-5 cells (mutated for ATM); assay: Colony forming assay; type: cell-based
Procedure: as §1, §2

[4] = system: V3 (DNA-PKcs−/−) cells; assay: Clonogenic assay of CHO cells mutated in NHEJ; type: cell-based, rodent; conditions: 100 nM, 24 hours, grown 7-10 days (FIG. 9 black bar)
Procedure: Clonogenic assay of CHO cells that were mutated for proteins involved in the NHEJ repair-pathway treated with [sequence]. The cell lines used are AA8 (parental line), V3 (DNA-PCCS^(−/−)), xrss5 (KU80^(−/−)) and XR-1 (XRCC4^(−/−)), HIS P1.13-11 (KU70^(−/−)) and the corresponding parental cell line CHO-K1. Various dilutions of the CHO cells containing the NHEJ mutations as indicated were treated for 24 hours with [sequence] (25 nM, grey bars; 100 nM, black bars) or not treated (white bars); the cells were washed and then grown for 7-10 days, stained with GIEMSA and colonies were counted.
Moreover these NHEJ mutant cells were tested with [sequence] in clonogenic, colony-outgrowth assays that were assayed after a single addition of [sequence] for 12 hours at a concentration of 10 nM (grey bars) or at a concentration of 75 nM (black bars) or without protein treatment (not treated, white bars). Seven to ten days after addition, cell growth was analysed by staining with GIEMSA-blue and quantification of diverse cell-concentrations. […] The multiwell-microtiter-plates (for an example see FIG. 13A) were scanned using the VersaDOC® (BioRad) imaging system and growth was automatically quantified with the software package Quantify One® for the analysis of the microtiter-plates (microtiter-plates scanning software).

[5] = system: p53 positive or negative cells; assay: Cell cycle response to DSB's by FACS in p53 positive or negative cells; type: cell-based
Procedure: as §2

[6] = system: AT-5 cells (ATM negative); conditions: SCPVUTAT 100 nM or HU 1 mM
Procedure: AT-5 cells, negative for ATM were treated with [sequence]
(§3) P53 phosphorylation on Ser15 in response to [sequence] treatment was assayed in ATM positive or negative cell lines (MRC-5 and AT-5 respectively). For comparison parallel experiments were done with hydroxyurea (HU). […] For this immunoblotting experiments were done with extracts after treatment, by using specific antibodies to a phosphorylated Ser15 in p53 for specific detection.

[7] = system: neuroblasoma cell lines (IMR32, LAN5, GI-LIN) and primary neuroblastoma cell isolates; conditions: upon treatment with SCPVUTAT
Procedure: For the analysis the DNA content was assayed with FACS after staining of the cells with propidium J^−.

[8] = system: AT-5 cells (mutated for ATM); assay: FACS analysis of DNA content / cell cycle distribution; type: cell-based; conditions: incubation for 36 hours (25 nM, 100 nM)
Procedure: as §1
The cell cycle response to DSB's induced by […] treatment were analysed in p53 positive or negative cells. […] Incubation for 36 hours of the cell lines mutated for ATM (AT-5) with […] results in a transient retardation of the cell cycle, as was determined by a DNA content FACS analysis. […] A single addition of […] for 60 minutes to the AT-5 cells was sufficient to induce cell cycle stop after 24 hours (FIG. 8A) and finally leads to cell death, obtained from not correctly ligated DNA, and consequently, the clonogenic activity after a single treatment with […] for 60 minutes was below 0.02% for AT-5 cells. […]

[9] = system: U2OS osteosarcoma cells and IMR90 primary fibroblasts; assay: Protein transduction of the chimeric proteins (immunoblot and immunofluorescence with PvuII antibody); type: cell-based, human
Procedure: For a comparison aliquots of the supernatants of the cell culture taken before extract preparation were included in the analysis (upper panel, SUPERNATANT).
In addition DNA costaining was obtained with propidium J after RNAse A digest (red, upper panel).
The transduction capacity of the chimeric proteins was assayed in U2OS osteosarcoma cells and in the IMR90 primary fibroblasts cells. The cells were grown in DMEM containing 10% FCS and treated with the proteins of the invention in the same medium, in general in the presence of antibiotics. After 10 minutes of incubation of the cells with increasing quantities of the fusion protein […] (1, 10, 50, 100, 200 nM) and with the protein SCPVU (single chain PvuII without TAT) and SC34 as a control (prepared as described for […] except that the enzyme PvuII contains a mutant in position 34) cell extracts were prepared, separated on SDS-PAGE and assayed by immuno-blot analysis with a monospecific antibody to PvuII. Further, uptake was assayed after 30 min of incubation by immuno-fluorescence analysis using PvuII specific antibodies and nuclear costaining with propidium iodide.

[10] = system: U2OS cells; assay: Histone H2AX Ser139 phosphorylation, single cell fluorescence microscopy; type: cell-based, human; conditions: 100 nM, 60 minutes
Procedure: U2OS cells were treated with [sequence] (100 nM, central column) for 60 minutes, in addition treatment was done with Wortmanin (50 μM, WM, right column), or with no agent as a control (left column). After treatment cells were stained with specific antibodies to H2AX-Ser-139 phosphorylated (red) or for Histone 2B (served as a control, green) and analysed on a single cell level by fluorescence microscopy.
As another example for a phosphorylation of a substrate of ATM in response to the object of the invention, histone H2AX Ser^139 phosphorylation was analysed. […] U2OS cells were treated for 60 minutes with [sequence], fixed and analysed for histone H2AX Ser^139 phosphorylation. Cells were analysed with a specific antiserum to phospho-Ser 139 on histone H2AX and analysed in the microscope on a single cell basis. As a control histone 2B was analysed.

[11] = system: MRC-5 cells (ATM positive); conditions: SCPVUTAT 100 nM or HU 1 mM
Procedure: [sequence] dependent Ser^15 phosphorylation of p53. The ATM positive cell-line MRC5 was treated with [sequence] (100 nM, SC) or with hydroxyurea (1 mM, HU) for the time periods as indicated; as a control non treated cells were used (O).
as §3

B1: SCPVUTAT: single chain PvuII endonuclease (aa 1-157, GSGG linker, aa 2-157) fused to HIV Tat peptide and six histidine tag; SEQ ID NO:2 (protein, listed as Proteus vulgaris)
chain: MSHPDLNKLLELWPHIQEYQDLALKHGINDIFQDNGGKLLQVLLITGLTVLPGREGNDAVDNAGQEYELKSINIDLTKGFSTHHHMNPVIIAKYRQVPWIFAIYRGIAIEAIYRLEPKDLEFYYDKWERKWYSDGHKDINNPKIPVKYVMEHGTKIYGSGGSHPDLNKLLELWPHIQEYQDLALKHGINDIFQDNGGKLLQVLLITGLTVLPGREGNDAVDNAGQEYELKSINIDLTKGFSTHHHMNPVIIAKYRQVPWIFAIYRGIAIEAIYRLEPKDLEFYYDKWERKWYSDGHKDINNPKIPVKYVMEHGTKIYGSYGRKKRRQRRRGGSHHHHHH
[1]; single addition of SCPVUTAT
  colony formation, cells with mutants in the DNA-PK incl. catalytic subunit: strong reduction in the colony formation assay
[1]; single treatment, all NHEJ mutated cell lines analysed
  colony formation activity: strongly reduce colony formation activity
[2]
  sensitivity in colony forming assay compared to AT-5: less sensitive
[3]; 100 nM, 60 minutes, grown 7-10 days (FIG. 8B black bar)
  colonies relative to non treated cells (100%): ~0%
[3]; single treatment for 60 minutes
  clonogenic activity: below 0.02%
[4]
  colonies relative to non treated cells (100%): below 1%
[5]; cells negative for p53
  cell cycle response: do not exhibit arrest characteristics of the cell cycle
[5]; cells positive for p53
  cell cycle response: cell cycle arrest behaviour in G1 and G2 with low S-phase values
[6]
  p53-Ser15 phosphorylation: specific phosphorylation of p53-Ser^15 is obtained
[7]
  induction of apoptosis: significant amount of apoptosis was induced
[8]
  change of cell cycle distribution (DNA content): strong increase in 4N G2 DNA content
[9]; 1-200 nM SCPVUTAT, controls 200 nM, 10 min incubation, immunoblot with PvuII antibody
  import / enrichment in the cells: enriched in the cells and in particular in the nucleus
[9]; protein added to culture medium (DMEM, 10% FCS), immunoblot after 10 min, immunofluorescence after 30 min
  uptake, share of the cells analysed: ~100%
[10]
  histone H2AX Ser139 phosphorylation: rapidly induces histone H2AX Ser^139 phosphorylation
[11]
  p53-Ser15 phosphorylation: specific phosphorylation of p53-Ser^15 is obtained
